B1: Forkhead box protein E1 (Homo sapiens), O00358 (parent)
chain: MTAESGPPPPQPEVLATVKEERGETAAGAGVPGEATGRGAGGRRRKRPLQRGKPPYSYIALIAMAIAHAPERRLTLGGIYKFITERFPFYRDNPKKWQNSIRHNLTLNDCFLKIPREAGRPGKGNYWALDPNAEDMFESGSFLRRRKRFKRSDLSTYPAYMHDAAAAAAAAAAAAAAAAIFPGAVPAARPPYPGAVYAGYAPPSLAAPPPVYYPAASPGPCRVFGLVPERPLSPELGPAPSGPGGSCAFASAGAPATTTGYQPAGCTGARPANPSAYAAAYAGPDGAYPQGAGSAIFAAAGRLAGPASPPAGGSSGGVETTVDFYGRTSPGQFGALGACYNPGGQLGGASAGAYHARHAAAYPGGIDRFVSAM
partner: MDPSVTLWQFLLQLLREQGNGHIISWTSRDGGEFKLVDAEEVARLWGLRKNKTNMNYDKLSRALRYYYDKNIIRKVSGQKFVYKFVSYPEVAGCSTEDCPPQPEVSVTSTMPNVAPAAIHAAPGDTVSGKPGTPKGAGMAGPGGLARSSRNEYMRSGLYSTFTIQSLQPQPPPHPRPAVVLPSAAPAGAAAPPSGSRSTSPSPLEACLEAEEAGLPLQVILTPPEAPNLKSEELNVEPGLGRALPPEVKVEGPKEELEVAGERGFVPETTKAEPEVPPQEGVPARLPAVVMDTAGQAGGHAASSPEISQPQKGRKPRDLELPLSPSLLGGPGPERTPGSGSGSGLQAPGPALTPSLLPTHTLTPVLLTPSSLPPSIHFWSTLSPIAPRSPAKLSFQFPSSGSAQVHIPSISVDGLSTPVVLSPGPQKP

Variants of: B1
Conditions: with elk1_human ELK1, P19419

| Variant | effect of a mutation on the interaction |
| --- | --- |
| MTAESGPPPPQPEVLATVKEERGETAAGAGVPGEATGRGAGGRRRKRPLQRGKPPYSYIALIAMVIAHAPERRLTLGGIYKFITERFPFYRDNPKKWQNSIRHNLTLNDCFLKIPREAGRPGKGNYWALDPNAEDMFESGSFLRRRKRFKRSDLSTYPAYMHDAAAAAAAAAAAAAAAAIFPGAVPAARPPYPGAVYAGYAPPSLAAPPPVYYPAASPGPCRVFGLVPERPLSPELGPAPSGPGGSCAFASAGAPATTTGYQPAGCTGARPANPSAYAAAYAGPDGAYPQGAGSAIFAAAGRLAGPASPPAGGSSGGVETTVDFYGRTSPGQFGALGACYNPGGQLGGASAGAYHARHAAAYPGGIDRFVSAM [A65V] | with no effect |

— IntAct's records for PubMed 27852061
